Common to all, as to conditions: protein: recombinant; tags: His6-MBP or GST, TEV-cleavable; label: FAM in MST; none in crystal and EMSA; 5' overhang 1 nt on both strands, 15 bp
For orientation: Mobility shift assays separate free from complexed probe on a gel.

In one data set the target is T1, REF6 S1341W (Arabidopsis thaliana, UniProt Q9STM3 1223-1360, S1341W).
T1 sequence: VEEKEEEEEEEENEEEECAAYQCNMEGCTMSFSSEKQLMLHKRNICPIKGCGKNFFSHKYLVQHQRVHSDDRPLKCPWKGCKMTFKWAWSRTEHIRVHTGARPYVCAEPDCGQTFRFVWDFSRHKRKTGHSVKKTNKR
Put plainly: MST and EMSA; marked abrogation; MST: 20 mM HEPES pH 7.3, 150 mM NaCl, 0.2 mM TCEP, 0.5% CA-630, 25 C; EMSA: 30 uM protein, 10 uM dsDNA, 20 mM Tris pH 8.0, 100 mM NaCl, 2.5 mM MgCl2, 0.1% CA-630, 10% glycerol, 1 uM ZnSO4, 1 mM DTT, 4 C.

Another data set addresses T2, REF6 W1311A (Arabidopsis thaliana, UniProt Q9STM3 1223-1360, W1311A).
T2 sequence: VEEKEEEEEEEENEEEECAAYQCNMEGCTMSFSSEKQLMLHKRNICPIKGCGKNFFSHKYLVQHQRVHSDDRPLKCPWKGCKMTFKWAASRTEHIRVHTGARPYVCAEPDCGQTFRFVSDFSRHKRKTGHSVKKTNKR
The data set is described as above.

In the next data set the target is T3, REF6 E1315A (Arabidopsis thaliana, UniProt Q9STM3 1223-1360, E1315A).
T3 sequence: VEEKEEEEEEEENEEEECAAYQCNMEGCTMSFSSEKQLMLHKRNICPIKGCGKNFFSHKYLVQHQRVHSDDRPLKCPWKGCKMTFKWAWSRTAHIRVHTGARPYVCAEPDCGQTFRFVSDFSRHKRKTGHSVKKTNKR
Briefly: MST; MST: 20 mM HEPES pH 7.3, 150 mM NaCl, 0.2 mM TCEP, 0.5% CA-630, 25 C; EMSA: 30 uM protein, 10 uM dsDNA, 20 mM Tris pH 8.0, 100 mM NaCl, 2.5 mM MgCl2, 0.1% CA-630, 10% glycerol, 1 uM ZnSO4, 1 mM DTT, 4 C.

A further data set has as its target T4, REF6 F1339A (Arabidopsis thaliana, UniProt Q9STM3 1223-1360, F1339A).
T4 sequence: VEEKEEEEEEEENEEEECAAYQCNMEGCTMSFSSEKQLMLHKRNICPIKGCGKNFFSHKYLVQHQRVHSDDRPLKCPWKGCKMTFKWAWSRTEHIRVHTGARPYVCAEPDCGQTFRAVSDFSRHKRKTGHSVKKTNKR
The description is as above.

Another data set has as its target T5, REF6 V1340A (Arabidopsis thaliana, UniProt Q9STM3 1223-1360, V1340A).
T5 sequence: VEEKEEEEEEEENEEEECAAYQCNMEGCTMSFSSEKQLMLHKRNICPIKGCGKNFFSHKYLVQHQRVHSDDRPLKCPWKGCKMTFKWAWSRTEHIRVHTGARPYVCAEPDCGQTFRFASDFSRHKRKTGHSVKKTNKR
The description is as above.

In the next data set the target is T6, REF6 D1342A (Arabidopsis thaliana, UniProt Q9STM3 1223-1360, D1342A).
T6 sequence: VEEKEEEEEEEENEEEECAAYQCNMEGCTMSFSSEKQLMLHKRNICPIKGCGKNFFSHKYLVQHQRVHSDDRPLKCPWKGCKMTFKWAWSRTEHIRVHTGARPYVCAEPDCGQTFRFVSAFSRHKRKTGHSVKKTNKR
The data set is described as above.

The target in another data set is T7, REF6 Y1282A (Arabidopsis thaliana, UniProt Q9STM3 1223-1360, Y1282A).
T7 sequence: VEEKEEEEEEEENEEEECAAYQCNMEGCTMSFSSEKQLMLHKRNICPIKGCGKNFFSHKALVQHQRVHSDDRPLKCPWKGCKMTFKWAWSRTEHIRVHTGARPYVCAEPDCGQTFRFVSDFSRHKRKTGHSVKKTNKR
The description is as above.

Data on one molecule can be found in article PMC7105484, “Crystal structures of REF6 and its complex with DNA reveal diverse recognition mechanisms” (Cell Discovery, 2020).

B1: NAC004 m5 (dsDNA)
DNA 1: CTTTCTCTGTTTTGTC
DNA 2: GGACAAAACAGAGAAA
Broadly, the Kd is the equilibrium constant for the complex coming apart. For the molecule B1, the binding result in the data set with REF6 S1341W and in the data set with REF6 W1311A was “no binding” throughout. Besides, the Kd is 3700 nM with REF6 E1315A; 500 nM in the data set with REF6 F1339A; 500 nM with REF6 V1340A; 1300 nM with REF6 D1342A; 1100 nM with REF6 Y1282A.
